Assay results taken from the supplement of paper PMC9170038.

How the values were obtained:
MS2 coat protein [1] = experiment: apparent KD of MS2 coat protein, switch ON state; designed switch direction (-1 OFF switch, 1 ON switch): 1; higher = weaker reporter binding; details: FMN input: 0 or 200 uM; Eterna round: R93 (includes R88 designs)
How it was run: (§1)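 Titration buffer: 100 mM Tris-HCl pH 7.5, 80 mM KCl, 4 mM MgCl2, without or with constant ligand. Designed RNA switches transcribed on-chip from Illumina sequencing clusters received SNAP-549-labelled MS2 coat protein in twofold steps from 0.7 or 1.5 nM to 3 µM. Apparent KD is the median per design of fits to normalised cluster binding curves.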

MS2 coat protein [2] = experiment: apparent KD of MS2 coat protein, switch OFF state (with FMN for OFF switches, without FMN for ON switches); designed switch direction (-1 OFF switch, 1 ON switch): 1; higher = weaker reporter binding; details: FMN input: 0 or 200 uM; Eterna round: R93 (includes R88 designs)
How it was run: as §1

Sequence: AUAAAAUAAAGGGAGGAUAUCUAUAAUAAAACAUGAGGAUCACCCAUGUUAAAAAGAAGAUCAUGGGAGAAGGCCUAAAAUAAAU [SS2 M 30]
- apparent KD of MS2 coat protein (MS2 coat protein [1]): 37.9 nM
- apparent KD of MS2 coat protein (MS2 coat protein [2]): 46.1 nM

Sequence: AUAUGAGCUAAUGAGGAUAUCCAUAAUAAGACAUGAGGAUCACCCAUGUAAACAAAACAAUAAUGGGAGAAGGCAUUAGCUCAAU [SS 2 M49]
- apparent KD of MS2 coat protein (MS2 coat protein [1]): 45.7 nM
- apparent KD of MS2 coat protein (MS2 coat protein [2]): 58.8 nM

Sequence: AUAUGAGCUAUGGAGGAUAUCCAUAAUAAAACAUGAGGAUCACCCAUGUAAGAAAGAAAAGAAUGGGAGAAGGCCAUAGCUCAAU [SS 2 M44]
- apparent KD of MS2 coat protein (MS2 coat protein [1]): 11.6 nM
- apparent KD of MS2 coat protein (MS2 coat protein [2]): 13.1 nM

Sequence: AUGAGGAAGAGAGAGGAUAUCCAAAGGAAAACAUGAGGAUCACCCAUGUAAAAGGUAGGAAAUUGGGAGAAGGCUCAAGAGAGAG [salish99-ss2-065]
- apparent KD of MS2 coat protein (MS2 coat protein [1]): 23.4 nM
- apparent KD of MS2 coat protein (MS2 coat protein [2]): 44.7 nM

Sequence: AUGGUGUAGGUACAGGAUAUGUUGCUCGUAACAUGAGGAUCACCCAUGUACCUAUGAGAUUAAAUGCAGAAGGGUGCACACCACG [Usbivece]
- apparent KD of MS2 coat protein (MS2 coat protein [1]): 70.1 nM
- apparent KD of MS2 coat protein (MS2 coat protein [2]): 35.5 nM

Sequence: AUUAAACAUGAGGAUCACCCAUGUGGCAAAAGCACAGGAUAUAGGAGUCCGAGCAGACAACUAGAAGGGUGGAAAA [Rixelexe]
- apparent KD of MS2 coat protein (MS2 coat protein [1]): 28.8 nM
- apparent KD of MS2 coat protein (MS2 coat protein [2]): 53.7 nM

Sequence: CAAACAACAACACAGGAUAUACAUAUAAUAACAUGAGGAUCACCCAUGUAAGGCAAAAAUAAGCUGUAGAAGGGUGAACACACAA [Default title]
- apparent KD of MS2 coat protein (MS2 coat protein [1]): 10.6 nM
- apparent KD of MS2 coat protein (MS2 coat protein [2]): 14.1 nM

Sequence: CAGAAGGAGAGAGAGGAUAUCCAAAGGAAAACAUGAGGAUCACCCAUGUAAAAGGUAGGAAAUUGGGAGAAGGCUCAAGAGAGAG [salish99-ss2-110]
- apparent KD of MS2 coat protein (MS2 coat protein [1]): 33.2 nM
- apparent KD of MS2 coat protein (MS2 coat protein [2]): 33.3 nM

Sequence: CAGAGACAUGAGGAUCACCCAUGUAGGAUUAUGGGAGGAUAUACAAAGACGAGAGUCAGAGUAGAAGGCCUAGGAU [salish99-ss1-142]
- apparent KD of MS2 coat protein (MS2 coat protein [1]): 21.2 nM
- apparent KD of MS2 coat protein (MS2 coat protein [2]): 52.7 nM

Sequence: CGAAGACAUGAGGAUCACCCAUGUGGGAAUAUGGGAGGAUAUACAAAGACGAGAGUCAGAGUAGAAGGCCUAGGAG [salish99-ss1-106]
- apparent KD of MS2 coat protein (MS2 coat protein [1]): 40.2 nM
- apparent KD of MS2 coat protein (MS2 coat protein [2]): 59.3 nM

Sequence: CUGGACAUAGUACAGGAUAUAUGAAUAGUCACAUGAGGAUCACCCAUGUGCAUUUAUAUGCGCACAUAGAAGGGUGGUAGUUAAG [Mat - Same state - Malcolm Mod - D140]
- apparent KD of MS2 coat protein (MS2 coat protein [1]): 180 nM
- apparent KD of MS2 coat protein (MS2 coat protein [2]): 57.9 nM

Sequence: GAAAAACAUGAGGAUCACCCAUGUAAAAAAAUGGGAGGAUAUACAAAGACGAAAGUCAAAGUAGAAGGCCUGAAAG [same state 2]
- apparent KD of MS2 coat protein (MS2 coat protein [1]): 18 nM
- apparent KD of MS2 coat protein (MS2 coat protein [2]): 81.8 nM

Sequence: GAAAAACAUGAGGAUCACCCAUGUAAGAUAAACACAGGAUAUGCGAAAAGAAACAAAGAAGCAGAAGGGUGAAGAA [Mat - Same State 1 - Tesla mod - 46]
- apparent KD of MS2 coat protein (MS2 coat protein [1]): 18 nM
- apparent KD of MS2 coat protein (MS2 coat protein [2]): 30.2 nM

Sequence: GAAAAACAUGAGGAUCACCCAUGUAGAAAUAUGGGAGGAUAUACAAAGACGGAAGUCAAAGUAGAAGGCCUAAAAG [Mat - Same State 1 - Eli mod - D7]
- apparent KD of MS2 coat protein (MS2 coat protein [1]): 27.9 nM
- apparent KD of MS2 coat protein (MS2 coat protein [2]): 71.2 nM

Sequence: GAAAAACAUGAGGAUCACCCAUGUAGAAAUAUGGGAGGAUAUACAAAGACGUAAGUCAAAGUAGAAGGCCUAAAAG [Mat - Same State 1 - Eli mod - D8]
- apparent KD of MS2 coat protein (MS2 coat protein [1]): 19.1 nM
- apparent KD of MS2 coat protein (MS2 coat protein [2]): 76.9 nM

Sequence: GAAAAACAUGAGGAUCACCCAUGUAGAAAUAUGGGAGGAUAUACAAUGACGAAAGUCAAUGUAGAAGGCCUGAUAG [JL S1 M-MoE mod 4]
- apparent KD of MS2 coat protein (MS2 coat protein [1]): 25.7 nM
- apparent KD of MS2 coat protein (MS2 coat protein [2]): 74.2 nM

Sequence: GAAAAACAUGAGGAUCACCCAUGUAGAAAUAUGGGAGGAUAUACGAACUCGAAAGUCAAAGUAGAAGGCCUAAAAG [Garnet 30]
- apparent KD of MS2 coat protein (MS2 coat protein [1]): 47 nM
- apparent KD of MS2 coat protein (MS2 coat protein [2]): 130 nM

Sequence: GAAAAACAUGAGGAUCACCCAUGUGAAAAUAUGGGAGGAUAUACGAAGUCGAAAGUCAGAGUAGAAGGCCUAAAAG [Garnet 33]
- apparent KD of MS2 coat protein (MS2 coat protein [1]): 26.7 nM
- apparent KD of MS2 coat protein (MS2 coat protein [2]): 73.3 nM

Sequence: GAAAAACAUGAGGAUCACCCAUGUGAAAAUAUGGGAGGAUAUACUAAGACGAAAGUCGAGGUAGAAGGCCUAAAAG [Same State 1.4h (Mat - Mod of Eli - )]
- apparent KD of MS2 coat protein (MS2 coat protein [1]): 24.7 nM
- apparent KD of MS2 coat protein (MS2 coat protein [2]): 131 nM

Sequence: GAAAAACAUGAGGAUCACCCAUGUGUAAACACGGGAGGAUAUACAAAGACGUAAGUCAAAGUAGAAGGCCUAAAAG [Garnet 39]
- apparent KD of MS2 coat protein (MS2 coat protein [1]): 26.7 nM
- apparent KD of MS2 coat protein (MS2 coat protein [2]): 96.5 nM

Sequence: GAAAAACAUGAGGAUCACCCAUGUGUAAAUAUGGAAGGAUAUACAAAGACGGAAGUCAAAGUAGAAGGUCUAAAAG [Mat - Same State 1 - Eli mod - D18]
- apparent KD of MS2 coat protein (MS2 coat protein [1]): 24.5 nM
- apparent KD of MS2 coat protein (MS2 coat protein [2]): 30.3 nM

Sequence: GAAAAACAUGAGGAUCACCCAUGUUAAUAUAUGGGAGGAUAUACAAAGACGAAAGUCAAAGUAGAAGGCCUAAAAG
- apparent KD of MS2 coat protein (MS2 coat protein [1]): 19.7 nM
- apparent KD of MS2 coat protein (MS2 coat protein [2]): 43.3 nM

Sequence: GACGGACAUGAGGAUCACCCAUGUCGGAAAAGGCAAGGAUAUGGGCGGUACCAAUUUCGGUCAGAAGGUGCAAAAG [Beenedriar]
- apparent KD of MS2 coat protein (MS2 coat protein [1]): 117 nM
- apparent KD of MS2 coat protein (MS2 coat protein [2]): 61 nM

Sequence: GAGGACAUAGUAUAGGAUAUAUGAAUAAUUACAUGAGGAUCACCCAUGUGCAUUUAUAUGCGAACAUAGAAGGGUGGUAGUUAUC [SameState2 Malc#32]
- apparent KD of MS2 coat protein (MS2 coat protein [1]): 41.6 nM
- apparent KD of MS2 coat protein (MS2 coat protein [2]): 37 nM

Sequence: GAGGACAUAGUUCAGGAUAUAUGAAUAGUCACAUGAGGAUCACCCAUGUCCAUUUAUAUGGGCACAUAGAAGGGAGGUAGUUAUC [SameState2 Malc#26]
- apparent KD of MS2 coat protein (MS2 coat protein [1]): 205 nM
- apparent KD of MS2 coat protein (MS2 coat protein [2]): 417 nM

Sequence: GCAGGGCUACACUAGGAUAUGGGUGUCUAAACAUGAGGAUCACCCAUGUGAUGGCAAAACAAAGCUCAGAAGGAGUCGUAGCCCA [Bebirare]
- apparent KD of MS2 coat protein (MS2 coat protein [1]): 14 nM
- apparent KD of MS2 coat protein (MS2 coat protein [2]): 24.3 nM

Sequence: GGAGCCGGCACUGAGGAUAUUCAUAUUAAAACAUGAGGAUCACCCAUGUAGGCCAGAAGGCCUUGGGAGAAGGCAGGUCGGCCCG [Bibimaor]
- apparent KD of MS2 coat protein (MS2 coat protein [1]): 18.5 nM
- apparent KD of MS2 coat protein (MS2 coat protein [2]): 252 nM

Sequence: GGAUAACAUGAGGAUCACCCAUGUACAUGGGUACAAGGAUAUGUAAAAUAAAACAAACAAACAGAAGGUGUAAAAA [I'm in a state]
- apparent KD of MS2 coat protein (MS2 coat protein [1]): 228 nM
- apparent KD of MS2 coat protein (MS2 coat protein [2]): 163 nM

Sequence: GGGAGACAUGAGGAUCACCCAUGUGAAAACGUGUGAGGAUAUCUAUGGAAACCAUACUGUAGAGAAGGCACUUGUC [Servius Sulpicius Similis]
- apparent KD of MS2 coat protein (MS2 coat protein [1]): 45.4 nM
- apparent KD of MS2 coat protein (MS2 coat protein [2]): 125 nM

Sequence: GGGAGACAUGAGGAUCACCCAUGUGAGAAGAGGCGAGGAUAUCGAAAAAAAAAAAAAAAACGAGAAGGCGCGAGAU [salish99-SS1-004]
- apparent KD of MS2 coat protein (MS2 coat protein [1]): 74.4 nM
- apparent KD of MS2 coat protein (MS2 coat protein [2]): 300 nM

Sequence: GGGAGGAAGAGAGAGGAUAUCCAAAGGAAAACAUGAGGAUCACCCAUGUAAAAGGUAGGAAAUUGGGAGAAGGCUCAAAAGAGGG [salish99-ss2-038]
- apparent KD of MS2 coat protein (MS2 coat protein [1]): 29.8 nM
- apparent KD of MS2 coat protein (MS2 coat protein [2]): 40.6 nM

Sequence: GGUCGACAUGAGGAUCACCCAUGUAAGCCAAGGCAAGGAUAUGGGUAUAGGGUGCUAGGAUUAGAAGGUGCCAAAA [Soredige]
- apparent KD of MS2 coat protein (MS2 coat protein [1]): 87.1 nM
- apparent KD of MS2 coat protein (MS2 coat protein [2]): 82.8 nM

Sequence: GUAGACAUAGUUCAGGAUAUAUGAAUAGUCACAUGAGGAUCACCCAUGUGCAUUUAUAUGCGCACAUAGAAGGGAGGUAGUUAAC [Mat - Same state - Malcolm Mod - D122]
- apparent KD of MS2 coat protein (MS2 coat protein [1]): 22.3 nM
- apparent KD of MS2 coat protein (MS2 coat protein [2]): 20.7 nM

Sequence: GUCAGGAAGAGAGAGGAUAUCCAAAGGAAAACAUGAGGAUCACCCAUGUAAAAGGUAGGAAAUUGGGAGAAGGCUCAAGAGAGAG [salish99-ss2-095]
- apparent KD of MS2 coat protein (MS2 coat protein [1]): 31.5 nM
- apparent KD of MS2 coat protein (MS2 coat protein [2]): 48.8 nM

Sequence: GUUAGGAAGAGAGAGGAUAUCCAAAGGAAAACAUGAGGAUCACCCAUGUAAAAGGUAGGAAAUUGGGAGAAGGCUCAAGAGAGAG [salish99-ss2-079]
- apparent KD of MS2 coat protein (MS2 coat protein [1]): 31.9 nM
- apparent KD of MS2 coat protein (MS2 coat protein [2]): 37.5 nM

Sequence: GUUGAACAUGAGGAUCACCCAUGUCUCAACAGUCAAGGAUAUGGGUCAUGCAGAUGAAUACCAGAAGGUGAAUAAA [Zaorxe]
- apparent KD of MS2 coat protein (MS2 coat protein [1]): 15.8 nM
- apparent KD of MS2 coat protein (MS2 coat protein [2]): 33.6 nM

Sequence: UAAAAACAUGAGGAUCACCCAUGUAGAAAUAUGGGAGGAUAUACGAAGACGAAAGUCAAAGUAGAAGGCCUAAAAU [Mat - Same State 1 - Eli mod - D104]
- apparent KD of MS2 coat protein (MS2 coat protein [1]): 21.8 nM
- apparent KD of MS2 coat protein (MS2 coat protein [2]): 58 nM

Sequence: UAAUAAUAAACCAAGGAUAUGGAGUUUCCAACAUGAGGAUCACCCAUGUUUAGCAUGAAAUCGAACCAGAAGGUGGAGCCAAAUA [JR_SS002_Sub1004]
- apparent KD of MS2 coat protein (MS2 coat protein [1]): 10.8 nM
- apparent KD of MS2 coat protein (MS2 coat protein [2]): 42.5 nM

Sequence: UACAGACAUGAGGAUCACCCAUGUAGAAUUAUGGGAGGAUAUACAAAGACGAGAGUCAGAGUAGAAGGCCUAGGAA [salish99-ss1-164]
- apparent KD of MS2 coat protein (MS2 coat protein [1]): 24 nM
- apparent KD of MS2 coat protein (MS2 coat protein [2]): 64.6 nM
